The supplement of paper PMC9170038

System: K4 kissing-loop RNA reporter
Test: apparent KD of K4 kissing-loop reporter; higher = weaker reporter binding
Conditions: Eterna round: R107
Description: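 RNA-MaP round R107: designed RNA switches with theophylline, tryptophan, arginine or FMN aptamers are transcribed on-chip within common flanks. They are titrated with a labelled K4 kissing-loop RNA reporter in RNA-MaP buffer (100 mM Tris pH 7.5, 80 mM KCl, 4 mM MgCl2), without ligand or with the indicated ligand. Median apparent KD per design.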

[1] = input ligand: theophylline 20 uM
[2] = input ligand: tryptophan 2.4 mM
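Further: bound reporter read as fluorescence of individual clusters on recovered sequencing chips by microscopy, with normalized cluster intensities fitted with a binding model.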

Row | Sequence | apparent KD of K4 kissing-loop reporter (input ligand: FMN 200 uM) [nM] | apparent KD of K4 kissing-loop reporter (input ligand: arginine 13.2 mM) [nM] | apparent KD of K4 kissing-loop reporter (input ligand: none) [nM] | apparent KD of K4 kissing-loop reporter [1] [nM] | apparent KD of K4 kissing-loop reporter [2] [nM]
1 | UGUGUUUACCUGACUCAGUGAUGUUGAGAAGGAGCGUGCGAAUGCACAGGUAGGUCGCUCAACCUAAAUUCAGGUGAGCACUAAA | 303 | 76.4 | 408 | 656 | 724
2 | UCUAUAGUUAGAGGAUAUUGAAUUAGAGUGAUGUUCUAUAGAAGACCAGUGAUGUUGGAUAGUAUACAAGAAGGCUGAUCUAUAG [Same State FMN B GF 1] | 208 | 665 | 451 | 883 | 499
3 | AAGCAGUCUCUUGUAAUCAUCGAAGAUGAACGAGGACCGGUACGGCCGCCACUCGGAGUGAUGUUCCGAAGACUGCAAAAUAAAA [MatMod 16 - Jieux - Exclusion - Tryptophan A] | 650 | 494 | 676 | 873 | 219
4 | UGCAGUGAUGUUGCUAUUUUUCUUGAUUAACGAGGACCGGUACGGCCGCCACUCGAUUUCUCUCUAAUCCAGUAUGUUGUUUAAU [whbob_EX_Tryp_A_t4] | 114 | 137 | 114 | 143 | 86.1
5 | CCUAUCUCAUACGAUACCAGUCAACGAUAUUUUAUCGAUGCCAUCACCGAGUGAUGUUCGGACCCUUGGCAGCGUAUGGGAUAGG [Ex Theophylline B K4 4] | 248 | 244 | 270 | 445 | 251
6 | GAUAAUUACGUAGGAUAUCCAUAUCCGCGGUCUUGAUGGAUUUUUACGAUCCAGUGAUGUUGGAUUGGAGAAGGACGGAGGCAAA [Arquedis] | 289 | 392 | 403 | 435 | 362
7 | CUUGGUCUACGAAGGAGCGCCGUGCAGUGAUGUUGCAGUCAGAUCGAGUGAUGUUUCGGGCGGCAGGUAGGUCGCGUGGCCCUCU [Excusion Arginine B GF 27] | 574 | 437 | 725 | 692 | 591
8 | ACAAGGGAUCCAGAUACCAGCACUCAAGGAGCUAUAUCAGCGAGUGAUGUUCGUUCAUAGUGCCCUUGGCAGCUGUACUUCCUUG [Essoengeis] | 115 | 107 | 123 | 114 | 110
9 | AGAACUGUCUGAGAUACCAGCCAGGAAGUGAUGUUUCCAGCUCGACGAAAGUCGAGCCAUGGCCCUUGGCAGCUCAGACAGUUCA [Omei KL Theo B SS A v4] | 178 | 147 | 149 | 118 | 166
10 | UGUACCGAGUCAGGAUAUCAUAAUAAUCCAGUGAUGUUGGAAUAACCAGUACAAAAGUGCUGGCCUUGAGAAGGGACUUGGUACU [FmnBS 4 #SwitchBubble #StaticStem] | 179 | 140 | 177 | 157 | 147
11 | GUAUGUGGAAACACGUACUUAUAUCCUAGGCAGGAUAUGCGGAAACGCAGAAGGGCCACCGGCGAGAAAAUCCAGUGAUGUUGGA [Ex FMN A 7] | 260 | 248 | 244 | 238 | 249
12 | GGUUCCUCAGUGAUGUUGAGGUGACCUCGGCAGGAUAUAGGCAUUACUAGAAGGGCCAAAAGAACCCUGUCCAGCGACACAGGGU [Inatinar] | 157 | 304 | 310 | 259 | 265
13 | UUGUUUGGUUGAGAGGUUGGGCGAGAUGAUACCAGUAUAGUAGAGUACCCUUGGCAGCAUAGGAGAGAUAUAGUGAUGUUGUAUG [SSTheophA.U] | 390 | 302 | 477 | 482 | 381
14 | UCUUUUGUAUAUGAUACCAGCAGUGAGAGACAGGAAGUAUAGUGAUGUUAUAUGAGAGAAUGCCCUUGGCAGCGUGUGCGGUGGG [SSTheophylB.U] | 151 | 146 | 114 | 178 | 108
15 | GCGCGCGGCGGAGGAUAUAGCCGGUGGUCCGGGAAAGUGAGUGAUGUUCGCGGAGUUCUGGAUAUGUUAGAAGGCCGCCGCGCGC [qwertyuiopasdfghjklzxcvbnm] | 1010 | 857 | 1060 | 700 | 718
16 | UGCAGUGAUGUUGCUAUUUGUCUUGAUAAACGAGGACCGGUACGGCCGCCACUCGAUUUCUCUCUUAUCGGGUAUGUUGUUUAGU [#21 K4 Tryptophan A Exclusion] | 156 | 186 | 172 | 205 | 113
17 | AUUUAAUGUAUAGAUUAUAUACAUUAUUCAGAGGAUAUGCAUUGAAGCAGAAGGCUGGAUGUAGUGAUGUUGCAAUUUUAAUUUA [JR_SSFMNA_Sub007] | 205 | 247 | 218 | 299 | 143
18 | CCUGAAUCAGUGAGUGAUGUUCACGUCGAUACCAGCUAGGAUACUAGCCCUUGGCAGCGACAAUUGCCAAGUGUGGCUAGUCAAA [Theo B SS t8] | 140 | 134 | 160 | 148 | 147
19 | GCCGUACGCAUGGAUACCAGUCUUUCACGACUGGACAUGGAGUGAUGUUUCGUGAUGCUAGACCCUUGGCAGCCAUGCGUACGGC | 255 | 198 | 242 | 329 | 210
20 | CUCUGCUUCCCAGGGCUAGUGAUGUUAGCCCGAGGACCGGUACGGCCGCCACUCGAGUUAAGCAUCGACCGUGAAUGUUCGAAGC [theeternabot_exclusion_KL_Trp_A_48] | 138 | 143 | 139 | 179 | 140
21 | CGUGAAGCCCAGAGGUGAUGUAUAGUAUCGCGAGGACCGGUACGGCCGCCACUCGUGAAGAGAAAGGAGUGAUGUUCCGUAAUGG | 480 | 380 | 595 | 406 | 165
22 | AAAGGUUGAAGUGAUACCAGACUAGCAGUGAUGUUGCGCCAAAGUGAGUGAUGUUCACCAGUCCCUUGGCAGCACAUGCCUAAAG [Same State Theophylline B GF 13] | 985 | 890 | 1210 | 1310 | 811

Row | Sequence | apparent KD of K4 kissing-loop reporter (input ligand: FMN 200 uM) [nM] | apparent KD of K4 kissing-loop reporter (input ligand: arginine 13.2 mM) [nM] | apparent KD of K4 kissing-loop reporter (input ligand: none) [nM] | apparent KD of K4 kissing-loop reporter [1] [nM] | apparent KD of K4 kissing-loop reporter [2] [nM]
23 | GCACUCGAAAGAGUGCCUCUCGCCAUCACGUAGGAUAUCUGGAAACAGAGAAGGAUGGCAGUGAUGUUGCUUUCGAUGGCGAGAG | 165 | 137 | 180 | 174 | 188
24 | AAAGCUCUAUAGAGCAAGAGGUCAACUGAUACCAGAGGCUAUAGCCUCCCUUGGCAGCGGAACGAGUGAUGUUCGAGACCUCAAA [AK6.1 SS Theophylline A] | 1410 | 1120 | 1610 | 939 | 1130
25 | AGGUCACCAGGAAGGAGCGCCCUGACAGGUUGCUGCCGUGGGCAGUGAUGUUGCUCAGUCCGGCAGGUAGGUCGCCUGGUGACCU | 139 | 158 | 154 | 125 | 157
26 | AAAUGUAUCUGAAGGAGCGUGAAAUAAUAUUAGACAUAAUAGCCCAGUGAUGUUGGGUUAUCACAGGUAGGUCGCAGAUGUAUAA [Same State Arginie B GF 26] | 112 | 108 | 105 | 125 | 106
27 | UCUUUUGUAUAUGAUACCAGCAGUGAGAGACAGGAAGUAUAGUGAUGUUAUAUGAGAGAAUGCCCUUGGCAGCGUGUGCGGUUGG [SSTheophylB.V] | 95 | 174 | 322 | 268 | 137
28 | AGUGUCAGUGAUGUUGAGAAGAUGGGUACUAAGGAUAUGCGGCGAUGCAGAAGGUAGAAUGAUUAGUUCGCAUGUUAUGAGGGAU [theeternabot_exclusion_KL_FMN_A_46] | 484 | 364 | 573 | 487 | 336
29 | UUGACCUACUCAGGAUAUCCGCAGUGAUGUUGCGGUUGGCCUGAGCGACAUGAAAAUCUUACUACAGGAGAAGGGAGAGGGUUAC [Anraerce] | 106 | 79.8 | 134 | 88.5 | 96.9
30 | CUACUGAGUGAUGUUCAACAUAAUGUCGAUACCAGCACAUUUGCCUGCCCUUGGCAGCGACGCACCAGGACCUGAGAGUACUGGU [theeternabot_sameState_KL_Theo_A_13] | 567 | 637 | 623 | 612 | 410
31 | UGUACCGAGUCAGGAUAUGGCGUCGAAAGACGAAAUGGAGUGAUGUUCCUUAUCUGCGAAAGCAGUCCAGAAGGGACUUGGUACU [FmnBS 27 #SwitchBubble #StaticStem #DoubleMagnetSystem] | 134 | 120 | 137 | 123 | 137
32 | AGUGAUGUGGGAAGGAGCGCUACAAGACUUCAGUGAUGUUGAAGUGAUGUUUUAGUGUUGUAGCAGGUAGGUCGCCUAGAUGUUA [KL-XARG-B10] | 71.2 | 31.9 | 42.5 | 45.7 | 43.7
33 | GGGUUCUCGUCGGCCGCCACUUCAUGUAUUUAGCAGGCUUCGCUCAGACUCAGUGAUGUUGGGUAAAGGACCGGGACACAUUCAA [theeternabot_exclusion_KL_Trp_B_50] | 372 | 245 | 342 | 304 | 310
34 | AAUAUAUUGUGAAGGAGCGCGAAAAGCAGUGAUGUUGCUUACUUACAAUUUAUUUUUUACACGCAGGUAGGUCGCACAAUAUAUA [JR_SSArginiB_Sub015] | 234 | 223 | 269 | 280 | 220
35 | GUGGAAAUCAGAAGGAGCGUCUACAAUAAGAAAACCAGUGAUGUUGGUUUUAUUUAAUGAAGACAGGUAGGUCGCUGAAUUUCUA [Same State Arginie B GF 20] | 138 | 106 | 118 | 105 | 118
36 | UUUGUGAGUGAUGUUUGCAAUACGUUACCGAAGGAUAUUGUUGCGCCAAGAAGGUCGGAUGGAUCCAUGGGACAUGCCCUGGAGA [theeternabot_sameState_KL_FMN_A_45] | 617 | 384 | 509 | 450 | 474
37 | UAUAUACAUAGAUAGUUGUAUAUCGAGGAAGGAGCGUGCGCAGGCACAGGUAGGUCGCCUCAGCGCACGAGUGAUGUUCGUGGGC [Tezale] | 247 | 168 | 267 | 241 | 246
38 | GAUGGCAUGCGAGGAUAUUGUACGGAGUGAUGUUCCCAUUAUCCAGGUAUUCGAUUGACGAGUAUCCAAGAAGGCGCAUGCCAUC | 248 | 121 | 136 | 115 | 138
39 | GUUGGGUGGGUUAAAGAAUUUGUCUGACAACGAGGACCGGUACGGCCGCCACUCGAGUGAUGUUCGAGAAGAAAGAAAGAAAGAA | 66.4 | 123 | 95.4 | 146 | 126
40 | UAAUUUAUAACUUUUAUAUAAUAAUCAGAUACCAGUGAUUAAUGUCACCCUUGGCAGCUGUAUAGAGUGAUGUUCUAAUGCUUAA [JR_SSTheophyA_Sub023] | 204 | 198 | 147 | 223 | 149
41 | GCGCGGGAGUGAUGUUCCAAGUGGUGUUAACGAGGACCGGUACGGCCGCCACUCGUUACGGCCGGGCCGUAGGAUAAACUGGCGC [Same State - Tryptophan A (Freestyle 15)] | 373 | 418 | 479 | 544 | 398
42 | AUAAACUUGCAGUGAUGUUGCAAGUAAGACUAGGAUAUCAGGAAGCUGAGAAGGAGUCAUCUCCUUCAAACAUCACUAUGAAGGA [whbob_SS_FMNA__2th177] | 413 | 245 | 289 | 328 | 253
43 | CUUAUUAUGUCGGCCGCCACUCAAUGAUAAUCCACUAAAUUGCGAUUCAGUGAUGUUGAAGUGCUGAGGACCGGGACUAUUAACA [theeternabot_sameState_KL_Trp_B_22] | 541 | 206 | 345 | 214 | 316
